Measured values reported in patent US7098012.
Like-named read-outs stand apart in the source and are kept apart here.

Legend:
[1] = tested on: DNA demethylase (DNA dMTase) purified from A549 nuclear extract (Homo sapiens); conditions: Km, 37 C, buffer L
[2] = tested on: DNA demethylase (DNA dMTase) purified from A549 nuclear extract (Homo sapiens); test: inhibition; conditions: 5mC at CpG; oligonucleotide sequence only as image; preparation of enzyme not stated

For “SssI-methylated pBluescript SK(+) plasmid”, which activity ([1]; 5mC at all CpG, Vmax 40.42 pmol/h) is on record?
The activity was 3.3 nM.

How did the Ki [2] turn out when “double stranded CmG oligonucleotide inhibitor” was run?
The Ki was 50 nM.

hemimethylated [dCpdG]n*[mdCpdG]n was tested. Which activity ([1]; 5mC on one strand, Vmax 402 pmol/h) did it give?
The activity was 6 nM.

How did the activity ([1]; 5mC at all C of CpG, Vmax 340 pmol/h) turn out when fully methylated poly[mdCpdG]n was run?
The activity was 2.5 nM.
